Data reported in patent US20140087995A1 (published 2014).
Numbered stars: 1 amine (or outer) side, 2 acyl side, 3 side chain; on linkers, the order of the positions; unused ones are H or OH. Bridge positions count the residues as written; N and C are the ends. Side chains are listed from the residue outwards. Ends that are not written are not given here. * marks the point of attachment. C20 diacid = O=C(O)CCCCCCCCCCCCCCCCCCC(=O)*; γGlu = O=C(O)[C@H](CCC(=O)[*:2])N[*:1]; AEEA = NCCOCCOCC(=O)O

T1: rat calcitonin receptor (rat, UniProt P32214 25-516)
T1 construct: whole, on cells; Cell membranes of transiently transfected BHK tk'ts 13 cells (Assay VIII); also called rCTR; rCT
T1 sequence (looked up): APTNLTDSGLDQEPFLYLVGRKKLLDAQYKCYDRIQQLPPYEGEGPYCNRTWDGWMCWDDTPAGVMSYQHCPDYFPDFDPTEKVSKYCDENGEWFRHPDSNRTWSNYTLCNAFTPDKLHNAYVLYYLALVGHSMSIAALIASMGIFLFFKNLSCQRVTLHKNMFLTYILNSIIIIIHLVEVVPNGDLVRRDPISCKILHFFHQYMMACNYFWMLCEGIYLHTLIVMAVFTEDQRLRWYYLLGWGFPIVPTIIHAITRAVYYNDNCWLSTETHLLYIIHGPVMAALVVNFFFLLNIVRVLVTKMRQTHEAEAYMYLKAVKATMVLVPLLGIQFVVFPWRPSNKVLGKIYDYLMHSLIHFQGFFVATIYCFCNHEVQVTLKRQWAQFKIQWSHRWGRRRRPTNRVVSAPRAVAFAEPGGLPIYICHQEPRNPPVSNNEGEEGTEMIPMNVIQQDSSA

T2: rat amylin receptor (rat calcitonin receptor + rat RAMP 3) (rat, UniProt P32214 25-516; Q9JJ73 23-147)
T2 construct: whole, on cells; Cell membranes of transiently transfected BHK tk'ts 13 cells (Assay VI); also called rAmylin-R; rat amylin 3(a) receptor
T2 sequence (looked up) 1: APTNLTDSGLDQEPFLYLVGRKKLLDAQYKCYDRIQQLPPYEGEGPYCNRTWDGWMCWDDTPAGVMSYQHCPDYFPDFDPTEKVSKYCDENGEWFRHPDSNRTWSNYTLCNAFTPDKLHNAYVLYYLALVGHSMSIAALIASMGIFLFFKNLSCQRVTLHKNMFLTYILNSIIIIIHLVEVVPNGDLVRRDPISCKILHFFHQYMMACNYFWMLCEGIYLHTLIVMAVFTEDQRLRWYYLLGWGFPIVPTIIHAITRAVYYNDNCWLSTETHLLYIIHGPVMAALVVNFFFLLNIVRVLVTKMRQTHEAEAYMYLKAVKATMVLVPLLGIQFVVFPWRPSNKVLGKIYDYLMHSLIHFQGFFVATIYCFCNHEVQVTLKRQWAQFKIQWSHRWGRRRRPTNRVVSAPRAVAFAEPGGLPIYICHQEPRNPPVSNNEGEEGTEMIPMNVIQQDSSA
T2 sequence (looked up) 2: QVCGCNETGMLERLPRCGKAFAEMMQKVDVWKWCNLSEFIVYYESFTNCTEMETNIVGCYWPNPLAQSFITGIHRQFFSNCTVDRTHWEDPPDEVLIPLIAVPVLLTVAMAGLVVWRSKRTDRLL


How the values were obtained:
rat calcitonin receptor [1] = molecular target: T1, rat calcitonin receptor; test: ratio IC50 rat calcitonin receptor / IC50 rat amylin receptor
[2] = molecular target: T2, rat amylin receptor (rat calcitonin …); test: SPA competition vs 125I-rat amylin, membranes with rat CTR + rat RAMP3 (Assay VI)
rat calcitonin receptor [3] = molecular target: T1, rat calcitonin receptor; test: SPA competition vs 125I-calcitonin, membranes with rat CTR (Assay VIII)

Row | Binder | Ratio rCT/rAmylin binding (rat calcitonin receptor [1]) | IC50 [2] | IC50 (rat calcitonin receptor [3])
1 | K([AEEA-γGlu-C20 diacid])CNTATCATQRLANFLRHSSPNFGAIPSSTNVGPHTY-NH2 (disulfide 2-7; N-terminus assumed; SMILES CC[C@H](C)[C@H](NC(=O)[C@H](C)NC(=O)CNC(=O)[C@H](Cc1ccccc1)NC(=O)[C@H](CC(N)=O)NC(=O)[C@@H]1CCCN1C(=O)[C@H](CO)NC(=O)[C@H](CO)NC(=O)[C@H](Cc1c[nH]cn1)NC(=O)[C@H](CCCNC(=N)N)NC(=O)[C@H](CC(C)C)NC(=O)[C@H](Cc1ccccc1)NC(=O)[C@H](CC(N)=O)NC(=O)[C@H](C)NC(=O)[C@H](CC(C)C)NC(=O)[C@H](CCCNC(=N)N)NC(=O)[C@H](CCC(N)=O)NC(=O)[C@@H](NC(=O)[C@H](C)NC(=O)[C@@H]1CSSC[C@H](NC(=O)[C@@H](N)CCCCNC(=O)COCCOCCNC(=O)CC[C@H](NC(=O)CCCCCCCCCCCCCCCCCCC(=O)O)C(=O)O)C(=O)N[C@@H](CC(N)=O)C(=O)N[C@@H]([C@@H](C)O)C(=O)N[C@@H](C)C(=O)N[C@@H]([C@@H](C)O)C(=O)N1)[C@@H](C)O)C(=O)N1CCC[C@H]1C(=O)N[C@@H](CO)C(=O)N[C@@H](CO)C(=O)N[C@H](C(=O)N[C@@H](CC(N)=O)C(=O)N[C@H](C(=O)NCC(=O)N1CCC[C@H]1C(=O)N[C@@H](Cc1c[nH]cn1)C(=O)N[C@H](C(=O)N[C@@H](Cc1ccc(O)cc1)C(N)=O)[C@@H](C)O)C(C)C)[C@@H](C)O, Acylated analogue of human amylin; also called compound 58) | 76.6 | 0.135 nM | 10.3 nM
2 | K([γGlu-C20 diacid])CNTATCATQRLANFLRHSSPNFGAIPSSTNVGSHTY-NH2 (disulfide 2-7; N-terminus assumed; SMILES CC[C@H](C)[C@H](NC(=O)[C@H](C)NC(=O)CNC(=O)[C@H](Cc1ccccc1)NC(=O)[C@H](CC(N)=O)NC(=O)[C@@H]1CCCN1C(=O)[C@H](CO)NC(=O)[C@H](CO)NC(=O)[C@H](Cc1c[nH]cn1)NC(=O)[C@H](CCCNC(=N)N)NC(=O)[C@H](CC(C)C)NC(=O)[C@H](Cc1ccccc1)NC(=O)[C@H](CC(N)=O)NC(=O)[C@H](C)NC(=O)[C@H](CC(C)C)NC(=O)[C@H](CCCNC(=N)N)NC(=O)[C@H](CCC(N)=O)NC(=O)[C@@H](NC(=O)[C@H](C)NC(=O)[C@@H]1CSSC[C@H](NC(=O)[C@@H](N)CCCCNC(=O)CC[C@H](NC(=O)CCCCCCCCCCCCCCCCCCC(=O)O)C(=O)O)C(=O)N[C@@H](CC(N)=O)C(=O)N[C@@H]([C@@H](C)O)C(=O)N[C@@H](C)C(=O)N[C@@H]([C@@H](C)O)C(=O)N1)[C@@H](C)O)C(=O)N1CCC[C@H]1C(=O)N[C@@H](CO)C(=O)N[C@@H](CO)C(=O)N[C@H](C(=O)N[C@@H](CC(N)=O)C(=O)N[C@H](C(=O)NCC(=O)N[C@@H](CO)C(=O)N[C@@H](Cc1c[nH]cn1)C(=O)N[C@H](C(=O)N[C@@H](Cc1ccc(O)cc1)C(N)=O)[C@@H](C)O)C(C)C)[C@@H](C)O, Acylated analogue of human amylin; also called compound 60) [N^ε1-[(4S)-4-carboxy-4-(19-carboxynonadecanoylamino)butanoyl]-[Arg17,Pro21,Pro27,His35]-h-amylin] | 122 | 0.215 nM | 26.3 nM
3 | K([AEEA-γGlu-C20 diacid])CNTATCATQRLAHFLRHSSPNFGAIPSSTPVGSNTY-NH2 (disulfide 2-7; N-terminus assumed; SMILES CC[C@H](C)[C@H](NC(=O)[C@H](C)NC(=O)CNC(=O)[C@H](Cc1ccccc1)NC(=O)[C@H](CC(N)=O)NC(=O)[C@@H]1CCCN1C(=O)[C@H](CO)NC(=O)[C@H](CO)NC(=O)[C@H](Cc1c[nH]cn1)NC(=O)[C@H](CCCNC(=N)N)NC(=O)[C@H](CC(C)C)NC(=O)[C@H](Cc1ccccc1)NC(=O)[C@H](Cc1c[nH]cn1)NC(=O)[C@H](C)NC(=O)[C@H](CC(C)C)NC(=O)[C@H](CCCNC(=N)N)NC(=O)[C@H](CCC(N)=O)NC(=O)[C@@H](NC(=O)[C@H](C)NC(=O)[C@@H]1CSSC[C@H](NC(=O)[C@@H](N)CCCCNC(=O)COCCOCCNC(=O)CC[C@H](NC(=O)CCCCCCCCCCCCCCCCCCC(=O)O)C(=O)O)C(=O)N[C@@H](CC(N)=O)C(=O)N[C@@H]([C@@H](C)O)C(=O)N[C@@H](C)C(=O)N[C@@H]([C@@H](C)O)C(=O)N1)[C@@H](C)O)C(=O)N1CCC[C@H]1C(=O)N[C@@H](CO)C(=O)N[C@@H](CO)C(=O)N[C@H](C(=O)N1CCC[C@H]1C(=O)N[C@H](C(=O)NCC(=O)N[C@@H](CO)C(=O)N[C@@H](CC(N)=O)C(=O)N[C@H](C(=O)N[C@@H](Cc1ccc(O)cc1)C(N)=O)[C@@H](C)O)C(C)C)[C@@H](C)O, Acylated analogue of human amylin; also called compound 61) | 39.7 | 0.842 nM | 33.4 nM
4 | K([AEEA-γGlu-C20 diacid])CNTATCATQRLANFLRHSSPNFGAIPSSTNVGPNTY-NH2 (disulfide 2-7; N-terminus assumed; SMILES CC[C@H](C)[C@H](NC(=O)[C@H](C)NC(=O)CNC(=O)[C@H](Cc1ccccc1)NC(=O)[C@H](CC(N)=O)NC(=O)[C@@H]1CCCN1C(=O)[C@H](CO)NC(=O)[C@H](CO)NC(=O)[C@H](Cc1c[nH]cn1)NC(=O)[C@H](CCCNC(=N)N)NC(=O)[C@H](CC(C)C)NC(=O)[C@H](Cc1ccccc1)NC(=O)[C@H](CC(N)=O)NC(=O)[C@H](C)NC(=O)[C@H](CC(C)C)NC(=O)[C@H](CCCNC(=N)N)NC(=O)[C@H](CCC(N)=O)NC(=O)[C@@H](NC(=O)[C@H](C)NC(=O)[C@@H]1CSSC[C@H](NC(=O)[C@@H](N)CCCCNC(=O)COCCOCCNC(=O)CC[C@H](NC(=O)CCCCCCCCCCCCCCCCCCC(=O)O)C(=O)O)C(=O)N[C@@H](CC(N)=O)C(=O)N[C@@H]([C@@H](C)O)C(=O)N[C@@H](C)C(=O)N[C@@H]([C@@H](C)O)C(=O)N1)[C@@H](C)O)C(=O)N1CCC[C@H]1C(=O)N[C@@H](CO)C(=O)N[C@@H](CO)C(=O)N[C@H](C(=O)N[C@@H](CC(N)=O)C(=O)N[C@H](C(=O)NCC(=O)N1CCC[C@H]1C(=O)N[C@@H](CC(N)=O)C(=O)N[C@H](C(=O)N[C@@H](Cc1ccc(O)cc1)C(N)=O)[C@@H](C)O)C(C)C)[C@@H](C)O, Acylated analogue of human amylin; also called compound 50) | 81.7 | 0.069 nM | 5.63 nM

Now from value to binder:

Row | Ratio rCT/rAmylin binding (rat calcitonin receptor [1]) | IC50 [2] | IC50 (rat calcitonin receptor [3]) | Binder
5 | 42.8 | 0.42 nM | 18 nM | K([γGlu-C20 diacid])CNTATCATQRLAHFLRHSSPNFGAIPSSTPVGSNTY-NH2 (disulfide 2-7; N-terminus assumed; SMILES CC[C@H](C)[C@H](NC(=O)[C@H](C)NC(=O)CNC(=O)[C@H](Cc1ccccc1)NC(=O)[C@H](CC(N)=O)NC(=O)[C@@H]1CCCN1C(=O)[C@H](CO)NC(=O)[C@H](CO)NC(=O)[C@H](Cc1c[nH]cn1)NC(=O)[C@H](CCCNC(=N)N)NC(=O)[C@H](CC(C)C)NC(=O)[C@H](Cc1ccccc1)NC(=O)[C@H](Cc1c[nH]cn1)NC(=O)[C@H](C)NC(=O)[C@H](CC(C)C)NC(=O)[C@H](CCCNC(=N)N)NC(=O)[C@H](CCC(N)=O)NC(=O)[C@@H](NC(=O)[C@H](C)NC(=O)[C@@H]1CSSC[C@H](NC(=O)[C@@H](N)CCCCNC(=O)CC[C@H](NC(=O)CCCCCCCCCCCCCCCCCCC(=O)O)C(=O)O)C(=O)N[C@@H](CC(N)=O)C(=O)N[C@@H]([C@@H](C)O)C(=O)N[C@@H](C)C(=O)N[C@@H]([C@@H](C)O)C(=O)N1)[C@@H](C)O)C(=O)N1CCC[C@H]1C(=O)N[C@@H](CO)C(=O)N[C@@H](CO)C(=O)N[C@H](C(=O)N1CCC[C@H]1C(=O)N[C@H](C(=O)NCC(=O)N[C@@H](CO)C(=O)N[C@@H](CC(N)=O)C(=O)N[C@H](C(=O)N[C@@H](Cc1ccc(O)cc1)C(N)=O)[C@@H](C)O)C(C)C)[C@@H](C)O, Acylated analogue of human amylin; also called compound 62)
6 | 119 | 0.523 nM | 62 nM | K([γGlu-C20 diacid])CNTATCATQRLAEFLRHSSPNFGAIPSSTNVGSRTY-NH2 (disulfide 2-7; N-terminus assumed; SMILES CC[C@H](C)[C@H](NC(=O)[C@H](C)NC(=O)CNC(=O)[C@H](Cc1ccccc1)NC(=O)[C@H](CC(N)=O)NC(=O)[C@@H]1CCCN1C(=O)[C@H](CO)NC(=O)[C@H](CO)NC(=O)[C@H](Cc1c[nH]cn1)NC(=O)[C@H](CCCNC(=N)N)NC(=O)[C@H](CC(C)C)NC(=O)[C@H](Cc1ccccc1)NC(=O)[C@H](CCC(=O)O)NC(=O)[C@H](C)NC(=O)[C@H](CC(C)C)NC(=O)[C@H](CCCNC(=N)N)NC(=O)[C@H](CCC(N)=O)NC(=O)[C@@H](NC(=O)[C@H](C)NC(=O)[C@@H]1CSSC[C@H](NC(=O)[C@@H](N)CCCCNC(=O)CC[C@H](NC(=O)CCCCCCCCCCCCCCCCCCC(=O)O)C(=O)O)C(=O)N[C@@H](CC(N)=O)C(=O)N[C@@H]([C@@H](C)O)C(=O)N[C@@H](C)C(=O)N[C@@H]([C@@H](C)O)C(=O)N1)[C@@H](C)O)C(=O)N1CCC[C@H]1C(=O)N[C@@H](CO)C(=O)N[C@@H](CO)C(=O)N[C@H](C(=O)N[C@@H](CC(N)=O)C(=O)N[C@H](C(=O)NCC(=O)N[C@@H](CO)C(=O)N[C@@H](CCCNC(=N)N)C(=O)N[C@H](C(=O)N[C@@H](Cc1ccc(O)cc1)C(N)=O)[C@@H](C)O)C(C)C)[C@@H](C)O, Acylated analogue of human amylin; also called compound 51)
